Measured values: the supplement of paper PMC7877785
± gives the uncertainty stated by the source.

Test: self-splicing fitness, log relative to wild type (ln ratio); higher = more splicing; Tetrahymena group I intron in knt gene, E. coli kanamycin selection, DiMSum; sequences stand for … in CUCUCU…GGAGGGAAAAGUUAUCAGGCAUGCACCUGGUAGCUAGUCUUUAAACCAAUAGAUUGCAUCGGUUUAAAAGGCAAGACCGUCAAAUUGCGGGAAAGGGGUCAACAGCCGUUCAGUACCAAGUCUCAGGGGAAACUUUGAGAUGGCCUUGCAAAGGGUAUGGUAAUAAGCUGACGGACAUGGUCCUAACCACGCAGCCAAGUCCUAAGUCAACAGAUCUUCUGUUGAUAUGGAUGCAGUUCACAGACUAAAUGUCGGUCGGGGAAGAUGUAUUCUUCUCAUAAGAUAUAGUCGGACCUCUCCUUAAUGGGAGCUAGCGGAUGAAGUGAUGCAACACUGGAGCCGCUGGGAACUAAUUUGUAUGCGAAAGUAUAUUGAUUAGUUUUGGAGUACUCGUGGUCG
Procedure, shortened: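 Library with all eight P1ex-region intron nucleotides randomised, intron inside the knt kanamycin-resistance gene on pET-22b(+), in E. coli BL21(DE3). Cells grew overnight at 37°C or 30°C on LB agar with or without 25 μg/mL kanamycin (plus 100 μg/mL carbenicillin, 50 μM IPTG, 0.2% rhamnose), in six replicate transformations. Pooled colonies were amplicon-sequenced on Illumina HiSeq 2500. DiMSum fitness is the error-weighted combination of wild-type-normalised replicate fold changes, kanamycin versus none.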

Sequence | self-splicing fitness (ln) (30 °C) | self-splicing fitness (ln) (37 °C)
UGAUAGCAAUAUUACGUAAA | -3.07 ± 0.16 | -1.64 ± 0.14
UGAUAGCAAUAUUACGUCUU | -1.22 ± 0.092 | -1.33 ± 0.09
UGAUAGCAAUAUUACGUGUA | -2.89 ± 0.18 | -1.38 ± 0.13
UGCAAGCAAUAUUACGAACG | -0.0871 ± 0.083 | 0.961 ± 0.11
UGCAAGCAAUAUUACGAAGA | -1.99 ± 0.27 | -2.3 ± 0.31
UGCAAGCAAUAUUACGACCA | -0.338 ± 0.37 | -0.273 ± 0.3
UGCAAGCAAUAUUACGAUAC | -2.87 ± 0.23 | -2.24 ± 0.37
UGCAAGCAAUAUUACGAUGU | -2.73 ± 0.16 | -2.14 ± 0.19
UGCAAGCAAUAUUACGCACA | -1.38 ± 0.12 | -0.954 ± 0.13
UGCAAGCAAUAUUACGCCGA | -1.38 ± 0.15 | -0.485 ± 0.14
UGCAAGCAAUAUUACGCUGU | -3.03 ± 0.19 | -2.93 ± 0.33
UGCAAGCAAUAUUACGGAAG | -3.38 ± 0.14 | -1.44 ± 0.1
UGCAAGCAAUAUUACGGAUG | -1.25 ± 0.065 | -0.565 ± 0.078
UGCAAGCAAUAUUACGGCGG | -0.854 ± 0.046 | -0.116 ± 0.068
UGCAAGCAAUAUUACGGGGG | -3.16 ± 0.16 | -2.04 ± 0.15
UGCAAGCAAUAUUACGUGCA | -3.02 ± 0.21 | -3.18 ± 0.35
UGCAAGCAAUAUUACGUGUU | -2.22 ± 0.072 | -1.52 ± 0.098
UGCAAGCAAUAUUACGUUAU | -3.76 ± 0.15 | -1.3 ± 0.1
UGCAAGCAAUAUUACGUUUC | -4.31 ± 0.26 | -3.24 ± 0.17
UGCCAGCAAUAUUACGAACA | -0.458 ± 0.14 | 0.334 ± 0.17
UGCCAGCAAUAUUACGAACC | -3.55 ± 0.43 | -2.29 ± 0.5
UGCCAGCAAUAUUACGAGCA | -1.75 ± 0.26 | -0.682 ± 0.27
UGCCAGCAAUAUUACGAGGC | -4.02 ± 0.42 | -1.44 ± 0.18
UGCCAGCAAUAUUACGAUCG | -0.0468 ± 0.067 | 0.0388 ± 0.079
UGCCAGCAAUAUUACGAUUA | -0.904 ± 0.075 | -0.743 ± 0.089
UGCCAGCAAUAUUACGCAAC | – | -0.966 ± 0.42

Sequence | self-splicing fitness (ln) (30 °C) | self-splicing fitness (ln) (37 °C)
UGCCAGCAAUAUUACGCACA | -0.53 ± 0.093 | -0.708 ± 0.15
UGCCAGCAAUAUUACGCAGU | -4.11 ± 0.24 | -2.41 ± 0.2
UGCCAGCAAUAUUACGCGAA | -1.33 ± 0.11 | 0.357 ± 0.11
UGCCAGCAAUAUUACGCGCG | -0.853 ± 0.083 | -0.528 ± 0.1
UGCCAGCAAUAUUACGCGGG | -3.4 ± 0.2 | -2.44 ± 0.22
UGCCAGCAAUAUUACGCGUC | -2.05 ± 0.12 | -1.8 ± 0.15
UGCCAGCAAUAUUACGCUUG | -2.85 ± 0.16 | -2.33 ± 0.19
UGCCAGCAAUAUUACGGAAA | -1.8 ± 0.1 | -0.0875 ± 0.13
UGCCAGCAAUAUUACGGGCG | -3.1 ± 0.16 | -2.73 ± 0.21
UGCCAGCAAUAUUACGUCUA | -0.347 ± 0.081 | -0.671 ± 0.089
UGCCAGCAAUAUUACGUGAA | -1.73 ± 0.09 | -0.422 ± 0.1
UGCCAGCAAUAUUACGUGCC | -1.03 ± 0.095 | 0.0809 ± 0.15
UGCCAGCAAUAUUACGUUAC | -2.48 ± 0.23 | -3.38 ± 0.31
UGCGAGCAAUAUUACGAAAC | -2.99 ± 0.17 | -3.8 ± 0.34
UGCGAGCAAUAUUACGACUU | -2.13 ± 0.43 | -1.7 ± 0.41
UGCGAGCAAUAUUACGAGUU | -3.05 ± 0.14 | -1.35 ± 0.13
UGCGAGCAAUAUUACGAUUU | -3.11 ± 0.37 | -0.802 ± 0.16
UGCGAGCAAUAUUACGCGUU | -3.38 ± 0.27 | -1.39 ± 0.18
UGCGAGCAAUAUUACGCUCA | – | 0.239 ± 0.26
UGCGAGCAAUAUUACGGCGC | -2.34 ± 0.46 | –
UGCGAGCAAUAUUACGGUCU | -2.12 ± 0.15 | -1.45 ± 0.25
UGCGAGCAAUAUUACGUCUG | -1.24 ± 0.1 | -1.36 ± 0.13
UGCGAGCAAUAUUACGUGGG | -4.32 ± 0.43 | -2.69 ± 0.23
UGCGAGCAAUAUUACGUGGU | -3.4 ± 0.18 | -2.63 ± 0.21
UGCGAGCAAUAUUACGUGUA | -2.83 ± 0.11 | -1.01 ± 0.1
UGCUAGCAAUAUUACGAAUG | -0.8 ± 0.1 | 0.288 ± 0.16

Sequence | self-splicing fitness (ln) (30 °C) | self-splicing fitness (ln) (37 °C)
UGCUAGCAAUAUUACGACAG | -0.698 ± 0.059 | 0.337 ± 0.093
UGCUAGCAAUAUUACGACCG | -0.534 ± 0.17 | -0.458 ± 0.19
UGCUAGCAAUAUUACGACGA | -0.229 ± 0.13 | 0.191 ± 0.12
UGCUAGCAAUAUUACGAGCC | -0.0254 ± 0.11 | -0.681 ± 0.2
UGCUAGCAAUAUUACGAUAU | -2.3 ± 0.23 | -2.25 ± 0.21
UGCUAGCAAUAUUACGCAAG | -3.87 ± 0.33 | -3.11 ± 0.25
UGCUAGCAAUAUUACGCAGU | -3.21 ± 0.31 | -2.51 ± 0.43
UGCUAGCAAUAUUACGCAUU | -3.79 ± 0.39 | -1.85 ± 0.34
UGCUAGCAAUAUUACGCCCG | -0.583 ± 0.19 | 0.807 ± 0.3
UGCUAGCAAUAUUACGCGAA | -2.97 ± 0.32 | -1.88 ± 0.21
UGCUAGCAAUAUUACGCGAC | -2.66 ± 0.26 | -1.58 ± 0.3
UGCUAGCAAUAUUACGCGGA | -2.16 ± 0.12 | -1.24 ± 0.12
UGCUAGCAAUAUUACGCUGG | -3.07 ± 0.23 | -2.25 ± 0.32
UGCUAGCAAUAUUACGGAAG | -3.4 ± 0.35 | -2.31 ± 0.39
UGCUAGCAAUAUUACGGAUC | – | -0.421 ± 0.19
UGCUAGCAAUAUUACGGCUC | -1.4 ± 0.2 | -1.33 ± 0.23
UGCUAGCAAUAUUACGUAUC | – | -2.07 ± 0.38
UGCUAGCAAUAUUACGUAUG | -1.1 ± 0.067 | -0.309 ± 0.089
UGCUAGCAAUAUUACGUCAU | -2.72 ± 0.24 | -2.61 ± 0.22
UGCUAGCAAUAUUACGUCGG | -2.68 ± 0.25 | -0.202 ± 0.23
UGCUAGCAAUAUUACGUCUC | -3.59 ± 0.16 | -2.91 ± 0.2
UGCUAGCAAUAUUACGUCUU | -1.85 ± 0.093 | -0.906 ± 0.088
UGCUAGCAAUAUUACGUUCU | -0.686 ± 0.092 | -0.861 ± 0.12
UGGAAGCAAUAUUACGACGC | -1.66 ± 0.22 | -1.05 ± 0.28
UGGAAGCAAUAUUACGAUAA | -1.6 ± 0.12 | -0.36 ± 0.15
